Assay results from US20250163119A1, “COMPOUNDS FOR THE TREATMENT OF DIABETES OR OBESITY” (Eli Lilly and Company, priority 2023, published 2025).
Blank lines part the entries; values can stand above or below the binder they belong to. *1 amine or outer side, *2 acyl side, *3 side chain or, on linkers, in order; H or OH if unused. Where no end group is shown, it is not given here. Side-chain parts run from the residue outwards. [ ]: non-standard residue; d: D form. The star is where a group is joined. C20 diacid = O=C(O)CCCCCCCCCCCCCCCCCCC(=O)*; γGlu = O=C(O)[C@H](CCC(=O)[*:2])N[*:1]; εLys = N[C@@H](CCCCN[*:1])C(=O)[*:2]; NMeI = CC[C@H](C)[C@H](NC)C(=O)O; pGlu = O=C1CC[C@@H](C(=O)O)N1; αMeL = CC(C)C[C@](C)(N)C(=O)O; AEEA = NCCOCCOCC(=O)O; Aib = CC(C)(N)C(=O)O

Columns and labels:
Assay in all cases: cell-based or functional assay
[1] = target: rat CRHR2 (endogenous on A7r5 cells) (rat, UniProt P47866 20-411)
[2] = target: T1, human corticotropin-releasing hormone receptor 1 (CRHR1) (human, UniProt P34998 24-415)
T1 sequence (looked up): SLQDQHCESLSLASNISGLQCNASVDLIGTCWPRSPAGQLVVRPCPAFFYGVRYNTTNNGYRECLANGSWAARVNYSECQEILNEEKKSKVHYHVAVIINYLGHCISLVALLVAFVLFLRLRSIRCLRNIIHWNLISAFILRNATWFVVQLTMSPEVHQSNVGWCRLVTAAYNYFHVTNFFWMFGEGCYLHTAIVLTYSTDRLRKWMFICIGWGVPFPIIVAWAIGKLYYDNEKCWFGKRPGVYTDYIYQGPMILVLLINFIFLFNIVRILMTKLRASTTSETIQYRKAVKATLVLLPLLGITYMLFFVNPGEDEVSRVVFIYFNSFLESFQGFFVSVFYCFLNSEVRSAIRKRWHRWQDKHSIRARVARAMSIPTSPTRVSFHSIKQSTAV

[3] = target: T1, human corticotropin-releasing hormone …; remark: listed apart in the source

rat CRHR2 (endogenous on A7r5 cells), sequence (P47866 20-411): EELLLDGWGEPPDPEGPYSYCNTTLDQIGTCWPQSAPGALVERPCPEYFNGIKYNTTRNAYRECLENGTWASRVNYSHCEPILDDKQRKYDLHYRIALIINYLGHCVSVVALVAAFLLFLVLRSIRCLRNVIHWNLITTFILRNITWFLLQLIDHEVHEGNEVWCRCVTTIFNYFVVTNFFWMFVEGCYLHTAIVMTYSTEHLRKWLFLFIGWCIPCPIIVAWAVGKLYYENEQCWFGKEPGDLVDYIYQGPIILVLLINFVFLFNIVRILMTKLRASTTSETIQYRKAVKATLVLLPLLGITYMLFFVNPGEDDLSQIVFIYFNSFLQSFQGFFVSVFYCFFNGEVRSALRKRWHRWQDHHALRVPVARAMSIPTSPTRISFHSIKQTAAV

- A7r5 cAMP EC50 [1]: 0.112 nM
- Y79 cAMP EC50 [2]: 620 nM
- hCRHR1 cAMP EC50 [3]: > 10000 nM
B1: polypeptide comprising SEQ ID NO:25 (peptide)
peptide: [γGlu]GSPSIVTS[αMeL]DVPT[Aib][αMeL]LQKILEQERAEKARQQATEAAEILAQV-NH2
modifications: not fully specified (residue 1, N-terminus); also: Glu1 linked through its gamma-carboxyl to Gly2

- A7r5 cAMP EC50 [1]: 0.314 nM
- Y79 cAMP EC50 [2]: 2400 nM
- hCRHR1 cAMP EC50 [3]: > 10000 nM
Binder: [pGlu]GSPSGIVTS[αMeL]DVPT[Aib][αMeL]LQKILEQERAEKARQQAK([γGlu-AEEA-εLys-C20 diacid])EAAEILAQV-NH2 [polypeptide comprising SEQ ID NO:22]

- A7r5 cAMP EC50 [1]: 0.471 nM
- Y79 cAMP EC50 [2]: 6000 nM
- hCRHR1 cAMP EC50 [3]: > 10000 nM
Binder: [NMeI]VLSLDVPIGLLQILLEQEKQEKEKQQAKTNAQILAQV-NH2 (not fully specified (residue 29)) [Reference compound SEQ ID NO:54]

- Y79 cAMP EC50 [2]: > 10000 nM
- hCRHR1 cAMP EC50 [3]: > 10000 nM
Binder: IVLSLDVPIGLLQILLEQARARAAREQATTNARILARV-NH2 (ligand) [Human urocortin-2 (UCN2)]

- A7r5 cAMP EC50 [1]: 0.157 nM
- Y79 cAMP EC50 [2]: 1400 nM
- hCRHR1 cAMP EC50 [3]: > 10000 nM
Binder: Ac-GSPSIVTS[αMeL]DVPT[Aib][αMeL]LQKILEQERAEKARQQAK([γGlu-AEEA-εLys-C20 diacid])EAAEILAQV-NH2 [polypeptide comprising SEQ ID NO:1]
